Experimental data taken from paper PMC12583524 (Nature Communications, 2025).

B1: C37 Fab (papain digestion of the mAb) (Fab, V domains shown)
VH: QVQLQESGPGLVKPSETLSLTCTVSGGSIGSSSYYWGWIRQPPGKGLQWIGSFHYSGTTYYNPSLKSRVTISVDTSKNHFSLKLSSVTAADTAVYYCASRQNWNDGYFDYWGQGTLVTVSS
VL: DIQMTQSPATLSLSPGERATLFCRASQSVSSSLAWYQQKPGQAPRLLIYDASNRATGIPARFSGSGSGTDFTLTISSLEPEDFAVYYCQQRGNWPPITFGQGTRLDTK
B2: C37 Fab (recombinant, His-tag on the heavy chain) (Fab, V domains shown)
VH: B1 VH
VL: B1 VL
B3: C37 IgG (antibody, V domains shown)
VH: B1 VH
VL: B1 VL
B4: C34 Fab (papain digestion of the mAb) (Fab, V domains shown)
VH: EVQLVESGGGLVQPGRSLRLSCAASGFTFDDYAMHWVRQAPGKGLEWVSGISWNSGSIGYADSVKGRFTISRDNAKNSLYLQMNSLRAEDTALYYCAKDMGYSGNDDYYGMDVWGQGTTVTVSS
VL: DIQLTQSPSSLSASVGDRVTITCRASQRISSYLNWYQQKPGKAPKLLIYGAFSLQSGVPSRFSGSGSGTDFTLTISSLQPEDFATYYCQQSYRTLTRTFGQGTKVEIK
B5: C34 Fab (recombinant, His-tag on the heavy chain) (Fab, V domains shown)
VH: B4 VH
VL: B4 VL
B6: C34 IgG (antibody, V domains shown)
VH: B4 VH
VL: B4 VL

Assays:
[1] = molecular target: recombinant CHIKV E1–E2 fusion protein (Chikungunya virus, sequence as …); assay: SPR
[2] = molecular target: T1, CHIKV VLP (strain 119067) (Chikungunya virus, strain 119067, UniProt A0A1I9WLN7); assay: cryo-EM structure
[3] = molecular target: T1, CHIKV VLP (strain 119067); assay: dynamic light scattering

Row | Binder | Kd [1] | binding result [2] | binding result [3]
1 | B1 | < 1 nM | – | –
2 | B2 | – | binds | –
3 | B3 | – | – | binds
4 | B4 | < 1 nM | – | –
5 | B5 | – | binds | –
6 | B6 | – | – | binds
